# T1: NHERF3_1, Q5T2W1
# T1 sequence (Q5T2W1 4-100, limits assumed, looked up): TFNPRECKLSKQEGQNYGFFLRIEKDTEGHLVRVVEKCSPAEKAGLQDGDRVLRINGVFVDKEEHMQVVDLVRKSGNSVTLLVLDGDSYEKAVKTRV
# T2: LRRC7, Q96NW7
# T2 sequence (Q96NW7 1440-1537, limits assumed, looked up): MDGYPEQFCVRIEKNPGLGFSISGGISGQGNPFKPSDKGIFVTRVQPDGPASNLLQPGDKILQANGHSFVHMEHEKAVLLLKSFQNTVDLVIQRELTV
# T3: CARD11, Q9BXL7
# T3 sequence (Q9BXL7 662-765, limits assumed, looked up): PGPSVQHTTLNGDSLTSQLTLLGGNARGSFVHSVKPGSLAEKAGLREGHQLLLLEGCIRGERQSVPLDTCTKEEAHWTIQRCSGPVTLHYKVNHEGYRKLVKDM
# T4: PCLO, Q9Y6V0
# T4 sequence (Q9Y6V0 4491-4600, limits assumed, looked up): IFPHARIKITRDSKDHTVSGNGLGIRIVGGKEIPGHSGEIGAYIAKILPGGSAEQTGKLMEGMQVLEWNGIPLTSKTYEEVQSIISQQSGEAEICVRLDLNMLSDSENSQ
# T5: LIN7B, Q9HAP6
# T5 sequence (Q9HAP6 88-185, limits assumed, looked up): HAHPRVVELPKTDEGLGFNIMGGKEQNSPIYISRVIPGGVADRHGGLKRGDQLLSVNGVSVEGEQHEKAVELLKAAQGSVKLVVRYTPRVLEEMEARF
# T6: LNX2_2, Q8N448
# T6 sequence (Q8N448 334-432, limits assumed, looked up): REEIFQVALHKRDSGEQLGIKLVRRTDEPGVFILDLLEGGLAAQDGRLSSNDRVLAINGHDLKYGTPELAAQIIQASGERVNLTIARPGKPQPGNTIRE
# T7: NHERF3_3, Q5T2W1
# T7 sequence (Q5T2W1 238-333, limits assumed, looked up): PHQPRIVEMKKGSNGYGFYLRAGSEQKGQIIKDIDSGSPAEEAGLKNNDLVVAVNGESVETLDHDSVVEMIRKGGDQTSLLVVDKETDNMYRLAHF
# T8: HTRA3, P83110
# T8 sequence (P83110 354-453, limits assumed, looked up): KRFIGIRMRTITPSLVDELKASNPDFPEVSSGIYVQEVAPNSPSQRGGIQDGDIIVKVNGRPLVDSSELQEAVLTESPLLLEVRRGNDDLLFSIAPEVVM
# T9: SNTG1, Q9NSN8
# T9 sequence (Q9NSN8 52-150, limits assumed, looked up): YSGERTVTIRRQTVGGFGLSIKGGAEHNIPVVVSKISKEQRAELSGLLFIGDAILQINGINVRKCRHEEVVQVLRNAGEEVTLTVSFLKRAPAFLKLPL
# Biological target: SCRIB_3, Q14160
# Assay: holdup assay
# Design: key: below the threshold = too weak to quantify, mostly under pKd 3.1 to 4
# Settings: plain residues with an end cap or a label only (N-terminal biotin on a linker: ado-ado)
# SCRIB_3, Q14160, sequence (Q14160 999-1103): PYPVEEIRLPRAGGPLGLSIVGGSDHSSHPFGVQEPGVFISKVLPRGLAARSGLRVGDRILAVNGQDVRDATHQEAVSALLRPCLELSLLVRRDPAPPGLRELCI
row,pKd,Binder
1,4.47,"ARESQKVSHV [FAM110B, Q8TC76]"

# Biological target: T1, NHERF3_1, Q5T2W1
# Assay: holdup assay
# Design: key: below the threshold = too weak to quantify, mostly under pKd 3.1 to 4
# Settings: plain residues with an end cap or a label only (N-terminal biotin on a linker: ado-ado)
row,pKd,Binder
1,below the threshold,"ARESQKVSHV [FAM110B, Q8TC76]"

# Biological target: LAP2, Q96RT1
# Assay: holdup assay
# Design: key: below the threshold = too weak to quantify, mostly under pKd 3.1 to 4
# Settings: plain residues with an end cap or a label only (N-terminal biotin on a linker: ado-ado)
# LAP2, Q96RT1, sequence (Q96RT1 other isoform, or with tags, fused parts or gaps): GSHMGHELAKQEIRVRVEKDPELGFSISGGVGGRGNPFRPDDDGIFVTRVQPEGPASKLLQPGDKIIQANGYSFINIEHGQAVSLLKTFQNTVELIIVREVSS
row,pKd,Binder
1,3.66,"ARESQKVSHV [FAM110B, Q8TC76]"

# Biological target: SCRIB_2, Q14160
# Assay: holdup assay
# Design: key: below the threshold = too weak to quantify, mostly under pKd 3.1 to 4
# Settings: plain residues with an end cap or a label only (N-terminal biotin on a linker: ado-ado)
# SCRIB_2, Q14160, sequence (Q14160 857-960): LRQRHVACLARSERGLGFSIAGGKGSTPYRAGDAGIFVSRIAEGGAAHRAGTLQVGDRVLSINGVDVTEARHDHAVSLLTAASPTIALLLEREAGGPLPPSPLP
row,pKd,Binder
1,below the threshold,"ARESQKVSHV [FAM110B, Q8TC76]"

# Biological target: DLG5_1, Q8TDM6
# Assay: holdup assay
# Design: key: below the threshold = too weak to quantify, mostly under pKd 3.1 to 4
# Settings: plain residues with an end cap or a label only (N-terminal biotin on a linker: ado-ado)
# DLG5_1, Q8TDM6, sequence (Q8TDM6 617-713): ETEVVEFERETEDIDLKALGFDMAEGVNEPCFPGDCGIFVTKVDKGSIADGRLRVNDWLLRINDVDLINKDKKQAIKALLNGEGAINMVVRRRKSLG
row,pKd,Binder
1,below the threshold,"ARESQKVSHV [FAM110B, Q8TC76]"

# Biological target: Inadl_5, Q8NI35
# Assay: holdup assay
# Design: key: below the threshold = too weak to quantify, mostly under pKd 3.1 to 4
# Settings: plain residues with an end cap or a label only (N-terminal biotin on a linker: ado-ado)
# Inadl_5, Q8NI35, sequence (Q8NI35 673-780): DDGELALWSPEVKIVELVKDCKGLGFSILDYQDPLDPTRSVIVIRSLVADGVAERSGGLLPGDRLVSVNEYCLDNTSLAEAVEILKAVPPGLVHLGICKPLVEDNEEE
row,pKd,Binder
1,below the threshold,"ARESQKVSHV [FAM110B, Q8TC76]"

# Biological target: GRIP2_5, Q9C0E4
# Assay: holdup assay
# Design: key: below the threshold = too weak to quantify, mostly under pKd 3.1 to 4
# Settings: plain residues with an end cap or a label only (N-terminal biotin on a linker: ado-ado)
# GRIP2_5, Q9C0E4, sequence (Q9C0E4 544-642): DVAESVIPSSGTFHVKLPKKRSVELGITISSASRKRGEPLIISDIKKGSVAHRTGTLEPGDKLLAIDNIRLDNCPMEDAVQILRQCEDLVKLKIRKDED
row,pKd,Binder
1,below the threshold,"ARESQKVSHV [FAM110B, Q8TC76]"

# Biological target: T2, LRRC7, Q96NW7
# Assay: holdup assay
# Design: key: below the threshold = too weak to quantify, mostly under pKd 3.1 to 4
# Settings: plain residues with an end cap or a label only (N-terminal biotin on a linker: ado-ado)
row,pKd,Binder
1,below the threshold,"ARESQKVSHV [FAM110B, Q8TC76]"

# Biological target: NHERF4_1, Q86UT5-2
# Assay: holdup assay
# Design: key: below the threshold = too weak to quantify, mostly under pKd 3.1 to 4
# Settings: plain residues with an end cap or a label only (N-terminal biotin on a linker: ado-ado)
# NHERF4_1, Q86UT5-2, sequence (Q86UT5 other isoform, or with tags, fused parts or gaps): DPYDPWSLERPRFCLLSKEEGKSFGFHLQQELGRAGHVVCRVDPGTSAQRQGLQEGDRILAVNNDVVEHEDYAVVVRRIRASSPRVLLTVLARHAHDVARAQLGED
row,pKd,Binder
1,3.74,"ARESQKVSHV [FAM110B, Q8TC76]"

# Biological target: T3, CARD11, Q9BXL7
# Assay: holdup assay
# Design: key: below the threshold = too weak to quantify, mostly under pKd 3.1 to 4
# Settings: plain residues with an end cap or a label only (N-terminal biotin on a linker: ado-ado)
row,pKd,Binder
1,below the threshold,"ARESQKVSHV [FAM110B, Q8TC76]"

# Biological target: T4, PCLO, Q9Y6V0
# Assay: holdup assay
# Design: key: below the threshold = too weak to quantify, mostly under pKd 3.1 to 4
# Settings: plain residues with an end cap or a label only (N-terminal biotin on a linker: ado-ado)
row,pKd,Binder
1,below the threshold,"ARESQKVSHV [FAM110B, Q8TC76]"

# Biological target: T5, LIN7B, Q9HAP6
# Assay: holdup assay
# Design: key: below the threshold = too weak to quantify, mostly under pKd 3.1 to 4
# Settings: plain residues with an end cap or a label only (N-terminal biotin on a linker: ado-ado)
row,pKd,Binder
1,below the threshold,"ARESQKVSHV [FAM110B, Q8TC76]"

# Biological target: LDB3, O75112
# Assay: holdup assay
# Design: key: below the threshold = too weak to quantify, mostly under pKd 3.1 to 4
# Settings: plain residues with an end cap or a label only (N-terminal biotin on a linker: ado-ado)
# LDB3, O75112, sequence (O75112 1-94): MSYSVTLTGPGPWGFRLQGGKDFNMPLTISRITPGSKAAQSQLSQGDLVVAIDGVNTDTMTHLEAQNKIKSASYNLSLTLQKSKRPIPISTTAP
row,pKd,Binder
1,below the threshold,"ARESQKVSHV [FAM110B, Q8TC76]"

# Biological target: T6, LNX2_2, Q8N448
# Assay: holdup assay
# Design: key: below the threshold = too weak to quantify, mostly under pKd 3.1 to 4
# Settings: plain residues with an end cap or a label only (N-terminal biotin on a linker: ado-ado)
row,pKd,Binder
1,4,"ARESQKVSHV [FAM110B, Q8TC76]"

# Biological target: DLG4_3, P78352
# Assay: holdup assay
# Design: key: below the threshold = too weak to quantify, mostly under pKd 3.1 to 4
# Settings: plain residues with an end cap or a label only (N-terminal biotin on a linker: ado-ado)
# DLG4_3, P78352, sequence (P78352 306-403): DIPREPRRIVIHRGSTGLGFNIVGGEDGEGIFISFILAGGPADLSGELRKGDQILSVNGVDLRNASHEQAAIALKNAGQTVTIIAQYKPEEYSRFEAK
row,pKd,Binder
1,below the threshold,"ARESQKVSHV [FAM110B, Q8TC76]"

# Biological target: T7, NHERF3_3, Q5T2W1
# Assay: holdup assay
# Design: key: below the threshold = too weak to quantify, mostly under pKd 3.1 to 4
# Settings: plain residues with an end cap or a label only (N-terminal biotin on a linker: ado-ado)
row,pKd,Binder
1,below the threshold,"ARESQKVSHV [FAM110B, Q8TC76]"

# Biological target: GOPC, Q9HD26
# Assay: holdup assay
# Design: key: below the threshold = too weak to quantify, mostly under pKd 3.1 to 4
# Settings: plain residues with an end cap or a label only (N-terminal biotin on a linker: ado-ado)
row,pKd,Binder
1,3.98,"ARESQKVSHV [FAM110B, Q8TC76]"

# Biological target: IL16_3, Q14005
# Assay: holdup assay
# Design: key: below the threshold = too weak to quantify, mostly under pKd 3.1 to 4
# Settings: plain residues with an end cap or a label only (N-terminal biotin on a linker: ado-ado)
# IL16_3, Q14005, sequence (Q14005 1107-1207): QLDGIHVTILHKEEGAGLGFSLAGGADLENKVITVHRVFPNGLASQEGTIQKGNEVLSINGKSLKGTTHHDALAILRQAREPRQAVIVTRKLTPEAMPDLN
row,pKd,Binder
1,below the threshold,"ARESQKVSHV [FAM110B, Q8TC76]"

# Biological target: T8, HTRA3, P83110
# Assay: holdup assay
# Design: key: below the threshold = too weak to quantify, mostly under pKd 3.1 to 4
# Settings: plain residues with an end cap or a label only (N-terminal biotin on a linker: ado-ado)
row,pKd,Binder
1,below the threshold,"ARESQKVSHV [FAM110B, Q8TC76]"

# Biological target: MAGI2_4, Q86UL8
# Assay: holdup assay
# Design: key: below the threshold = too weak to quantify, mostly under pKd 3.1 to 4
# Settings: plain residues with an end cap or a label only (N-terminal biotin on a linker: ado-ado)
# MAGI2_4, Q86UL8, sequence (Q86UL8 772-865): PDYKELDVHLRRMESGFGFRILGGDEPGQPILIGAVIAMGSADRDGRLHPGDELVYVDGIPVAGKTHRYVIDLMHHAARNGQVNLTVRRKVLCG
row,pKd,Binder
1,below the threshold,"ARESQKVSHV [FAM110B, Q8TC76]"

# Biological target: SNX27, Q96L92
# Assay: holdup assay
# Design: key: below the threshold = too weak to quantify, mostly under pKd 3.1 to 4
# Settings: plain residues with an end cap or a label only (N-terminal biotin on a linker: ado-ado)
row,pKd,Binder
1,4.42,"ARESQKVSHV [FAM110B, Q8TC76]"

# Biological target: T9, SNTG1, Q9NSN8
# Assay: holdup assay
# Design: key: below the threshold = too weak to quantify, mostly under pKd 3.1 to 4
# Settings: plain residues with an end cap or a label only (N-terminal biotin on a linker: ado-ado)
row,pKd,Binder
1,4.34,"ARESQKVSHV [FAM110B, Q8TC76]"

# Biological target: GRID2IP_2, A4D2P6
# Assay: holdup assay
# Design: key: below the threshold = too weak to quantify, mostly under pKd 3.1 to 4
# Settings: plain residues with an end cap or a label only (N-terminal biotin on a linker: ado-ado)
# GRID2IP_2, A4D2P6, sequence (A4D2P6 272-370): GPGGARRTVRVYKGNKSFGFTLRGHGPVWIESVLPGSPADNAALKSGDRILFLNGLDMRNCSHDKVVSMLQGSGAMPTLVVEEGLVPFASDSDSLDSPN
row,pKd,Binder
1,4.66,"ARESQKVSHV [FAM110B, Q8TC76]"

# Biological target: PICK1, Q9NRD5
# Assay: holdup assay
# Design: key: below the threshold = too weak to quantify, mostly under pKd 3.1 to 4
# Settings: plain residues with an end cap or a label only (N-terminal biotin on a linker: ado-ado)
# PICK1, Q9NRD5, sequence (Q9NRD5 17-115): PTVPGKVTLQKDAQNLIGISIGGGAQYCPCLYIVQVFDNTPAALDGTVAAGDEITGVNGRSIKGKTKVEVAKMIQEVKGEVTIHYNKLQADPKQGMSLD
row,pKd,Binder
1,below the threshold,"ARESQKVSHV [FAM110B, Q8TC76]"

# Biological target: TJP2_1, Q9UDY2
# Assay: holdup assay
# Design: key: below the threshold = too weak to quantify, mostly under pKd 3.1 to 4
# Settings: plain residues with an end cap or a label only (N-terminal biotin on a linker: ado-ado)
# TJP2_1, Q9UDY2, sequence (Q9UDY2 24-128): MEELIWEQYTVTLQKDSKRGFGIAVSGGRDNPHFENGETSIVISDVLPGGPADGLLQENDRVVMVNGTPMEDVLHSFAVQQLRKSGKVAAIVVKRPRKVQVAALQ
row,pKd,Binder
1,3.87,"ARESQKVSHV [FAM110B, Q8TC76]"

# Biological target: Inadl_10, Q8NI35
# Assay: holdup assay
# Design: key: below the threshold = too weak to quantify, mostly under pKd 3.1 to 4
# Settings: plain residues with an end cap or a label only (N-terminal biotin on a linker: ado-ado)
# Inadl_10, Q8NI35, sequence (Q8NI35 1673-1763): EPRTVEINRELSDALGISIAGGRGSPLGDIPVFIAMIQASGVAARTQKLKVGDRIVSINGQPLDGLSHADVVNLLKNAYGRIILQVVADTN
row,pKd,Binder
1,below the threshold,"ARESQKVSHV [FAM110B, Q8TC76]"

# Biological target: GRIP2_7, Q9C0E4
# Assay: holdup assay
# Design: key: below the threshold = too weak to quantify, mostly under pKd 3.1 to 4
# Settings: plain residues with an end cap or a label only (N-terminal biotin on a linker: ado-ado)
# GRIP2_7, Q9C0E4, sequence (Q9C0E4 934-1023): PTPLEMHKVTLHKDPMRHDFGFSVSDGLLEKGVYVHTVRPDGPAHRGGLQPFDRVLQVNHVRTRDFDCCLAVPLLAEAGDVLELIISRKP
row,pKd,Binder
1,below the threshold,"ARESQKVSHV [FAM110B, Q8TC76]"

# Biological target: NHERF4_2, Q86UT5
# Assay: holdup assay
# Design: key: below the threshold = too weak to quantify, mostly under pKd 3.1 to 4
# Settings: plain residues with an end cap or a label only (N-terminal biotin on a linker: ado-ado)
# NHERF4_2, Q86UT5, sequence (Q86UT5 220-308): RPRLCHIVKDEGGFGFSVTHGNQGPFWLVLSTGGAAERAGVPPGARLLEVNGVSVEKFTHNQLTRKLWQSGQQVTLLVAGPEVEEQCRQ
row,pKd,Binder
1,below the threshold,"ARESQKVSHV [FAM110B, Q8TC76]"
